Measured values: US20050260697

B1: calpain-1 (protein)
chain: SEEIITPVYCTGVSAQVQKQRARELGLGRHENAIKYLGQDYEQLRVRCLQSGTLFRDEAFPPVPQSLGYKDLGPNSSKTYGIKWKRPTELLSNPQFIVDGATRTDICQGALGDCWLLAAIASLTLNDTLLHRVVPHGQSFQNGYAGIFHFQLWQFGEWVDVVVDDLLPIKDGKLVFVHSAEGNEFWSALLEKAYAKVNGSYEALSGGSTSEGFEDFTGGVTEWYELRKAPSDLYQIILKALERGSLLGCSIDISSVLDMEAITFKKLVKGHAYSVTGAKQVNYRGQVVSLIRMRNPWGEVEWTGAWSDSSSEWNNVDPYERDQLRVKMEDGEFWMSFRDFMREFTRLEICNLTPDALKSRTIRKWNTTLYEGTWRRGSTAGGCRNYPATFWVNPQFKIRLDETDDPDDYGDRESGCSFVLALMQKHRRRERRFGRDMETIGFAVYEVPPELVGQPAVHLKRDFFLANASRARSEQFINLREVSTRFRLPPGEYVVVPSTFEPNKEGDFVLRFFSEKSAGTVELDDQIQANLPDEQVLSEEEIDENFKALFRQLAGEDMEISVKELRTILNRIISKHKDLRTKGFSLESCRSMVNLMDRDGNGKLGLVEFNILWNRIRNYLSIFRKFDLDKSGSMSAYEMRMAIESAGFKLNKKLYELIITRYSEPDLAVDFDNFVCCLVRLETMFRFFKTLDTDLDGVVTFDLFKWLQLTMFA
B2: caspase-3 (protein)
chain: SGISLDNSYKMDYPEMGLCIIINNKNFHKSTGMTSRSGTDVDAANLRETFRNLKYEVRNKNDLTREEIVELMRDVSKEDHSKRSSFVCVLLSHGEEGIIFGTNGPVDLKKITNFFRGDRCRSLTGKPKLFIIQACRGTELDCGIETDSGVDDDMACHKIPVEADFLYAYSTAPGYYSWRNSKDGSWFIQSLCAMLKQYADKLEFMHILTRVNRKVATEFESFSFDATFHAKKQIPCIVSMLTKELYFYH

Experiments:
[1] = target: human muscle Troponin-T1, P13805
[2] = target: human muscle Troponin-T3, P45378
[3] = target: human cardiac Troponin-I3, P19429
[4] = target: human cardiac Troponin-T2, P45379

Sequence of human muscle Troponin-T1, P13805 (P13805 whole entry): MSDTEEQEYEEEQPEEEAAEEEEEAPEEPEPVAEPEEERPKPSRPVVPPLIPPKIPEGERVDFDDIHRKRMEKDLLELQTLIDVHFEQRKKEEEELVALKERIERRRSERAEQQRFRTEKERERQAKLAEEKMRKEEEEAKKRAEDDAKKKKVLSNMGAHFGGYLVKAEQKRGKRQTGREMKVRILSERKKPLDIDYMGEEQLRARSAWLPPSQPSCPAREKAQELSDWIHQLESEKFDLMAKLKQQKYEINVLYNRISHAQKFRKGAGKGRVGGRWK
Sequence of human muscle Troponin-T3, P45378 (P45378 2-269): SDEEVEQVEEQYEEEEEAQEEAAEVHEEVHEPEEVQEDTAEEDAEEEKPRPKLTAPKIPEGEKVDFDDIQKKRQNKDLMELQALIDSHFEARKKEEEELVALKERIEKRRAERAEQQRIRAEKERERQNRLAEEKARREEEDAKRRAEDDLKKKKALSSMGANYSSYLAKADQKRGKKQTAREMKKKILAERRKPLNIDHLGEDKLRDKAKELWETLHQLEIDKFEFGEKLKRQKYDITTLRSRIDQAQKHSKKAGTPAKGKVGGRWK
Sequence of human cardiac Troponin-I3, P19429 (P19429 whole entry, looked up): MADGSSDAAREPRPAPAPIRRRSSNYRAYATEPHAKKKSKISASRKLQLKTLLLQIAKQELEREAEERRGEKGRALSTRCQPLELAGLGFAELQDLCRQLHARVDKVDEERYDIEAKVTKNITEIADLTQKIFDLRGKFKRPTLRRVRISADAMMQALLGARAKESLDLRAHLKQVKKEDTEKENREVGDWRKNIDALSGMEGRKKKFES

Protein	in vitro protease digestion, breakdown products on Coomassie stained membrane and Western blot [1]	stated: cleaves (breakdown bands on a stained membrane and a blot) [1]	in vitro protease digestion, breakdown products on Coomassie stained membrane and Western blot [2]	stated: cleaves (breakdown bands on a stained membrane and a blot) [2]	in vitro protease digestion, breakdown products on gels [3]	in vitro protease digestion, breakdown products on gels [4]	stated: cleaves (breakdown bands on a gel) [4]
B1	human muscle Troponin-T1/3 was digested by calpain-1 protease, producing unique breakdown products	Coomassie panel: the band at 35 kDa in the TnT lane weakens in the +Calpain-I lanes with time and a band near the 15 kDa mark appears; band B of the blot is mapped to TnT1 (new N-terminus AEQKRGKRQTGR)	human muscle Troponin-T1/3 was digested by calpain-1 protease, producing unique breakdown products	Coomassie panel: the band at 35 kDa in the TnT lane weakens in the +Calpain-I lanes with time; band A of the blot, just below the intact band, is mapped to TnT3 (new N-terminus APKIPEGEK)	–	–	–
B2	–	–	–	–	human cardiac Troponin-T2 and Troponin-13 were cleaved by calpain-2 and caspase-3 proteases, producing unique breakdown products	human cardiac Troponin-T2 and Troponin-13 were cleaved by calpain-2 and caspase-3 proteases, producing unique breakdown products	the Caspase-3 lane shows a band d at the 25 kDa mark that is absent from the untreated lane and the Calpain-2 lanes; the Troponin-T2 band at 30 kDa is largely kept; no bands a, b, c
